T1: IA peptide IAKLDEESILKQK (XAKLDEESILKQK, X = I)
T1 construct: Immobilized on the biolayer interferometry sensor
T1 peptide: IAKLDEESILKQK

T2: MA
T2 chain: MAKLDEESILKQK

T3: VA peptide VAKLDEESILKQK (XAKLDEESILKQK, X = V)
T3 construct: Immobilized on the biolayer interferometry sensor
T3 peptide: VAKLDEESILKQK

T4: Kluyveromyces lactis UBR-box domain (PS528) (Kluyveromyces lactis, UniProt O60014 101-182)
T4 construct: UBR-streptavidin complex in fluorescence polarization
T4 sequence: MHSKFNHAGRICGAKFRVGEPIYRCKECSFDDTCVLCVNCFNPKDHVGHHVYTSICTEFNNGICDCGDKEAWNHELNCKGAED

T5: F peptide FAKLDEESILKQK (XAKLDEESILKQK, X = F)
T5 construct: Immobilized on the biolayer interferometry sensor
T5 peptide: FAKLDEESILKQK

T6: LA peptide LAKLDEESILKQK (XAKLDEESILKQK, X = L)
T6 construct: Immobilized on the biolayer interferometry sensor
T6 peptide: LAKLDEESILKQK

T7: Y peptide YAKLDEESILKQK (XAKLDEESILKQK, X = Y)
T7 construct: Immobilized on the biolayer interferometry sensor
T7 peptide: YAKLDEESILKQK

T8: FITC-labeled VA peptide VAKLDEESILKQK-FITC
T8 peptide: VAKLDEESILKQK-{FITC′}

T9: FITC-labeled LA peptide LAKLDEESILKQK-FITC
T9 peptide: LAKLDEESILKQK-{FITC′}

T10: FITC-labeled IA peptide IAKLDEESILKQK-FITC
T10 peptide: IAKLDEESILKQK-{FITC′}

T11: FITC-labeled YA peptide YAKLDEESILKQK-FITC
T11 peptide: YAKLDEESILKQK-{FITC′}

T12: FITC-labeled FA peptide FAKLDEESILKQK-FITC
T12 peptide: FAKLDEESILKQK-{FITC′}

T13: Mus musculus UBR-box domain (PS535) (Mus musculus, UniProt Q6WKZ8 98-168)
T13 sequence: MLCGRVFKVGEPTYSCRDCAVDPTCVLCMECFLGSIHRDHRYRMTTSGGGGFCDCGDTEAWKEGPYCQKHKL

T14: Saccharomyces cerevisiae UBR-box domain (PS538) (Saccharomyces cerevisiae, UniProt P19812 113-194)
T14 sequence: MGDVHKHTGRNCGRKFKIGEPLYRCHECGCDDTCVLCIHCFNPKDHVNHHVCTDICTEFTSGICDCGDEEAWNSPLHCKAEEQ

T15: IF
T15 construct: also called IFAGK
T15 chain: IFAGK

T16: LI
T16 construct: also called LIFAGK
T16 chain: LIFAGK

B1: Agrobacterium tumifaciens ClpS1 (atClpS1) (other)
chain: MIAEPICMQGEGDGEDGGTNRGTSVITRVKPKTKRPNLYRVLLLNDDYTPMEFVIHILERFFQKDREAATRIMLHVHQHGVGECGVFTYEVAETKVSQVMDFARQHQHPLQCVMEKK
notes: also called A. tumefaciens ClpS1; atClpS1 (WT)
B2: RA peptide (N-terminal arginine, penultimate alanine; rest of sequence not given) (peptide)
peptide: RAKLDEESILKQK-{FITC′}
B3: PS558 (other)
chain: MTATTADPDRTTAEKTTKKARRSGQPKRQPRYHVILWNDNDHTYQYVVAMLQQLFGHPATTGLKLATEVDRTGRAVILTTTREHAELKRDQIHAFGADRLLARSKGAMSASIEPEAE
B4: PS371 (other)
chain: MATETIERPRTRDPGSGLGGHWLVIVLNDDHNTFDHVAKTLARVIPGVTVDDGYRFADQIHQRGQAIVWRGPKEPAEHYWEQLQDAGLSMAPLERH
B5: Brachionus plicatilis UBR-box domain (PS505) (other)
chain: MVCGRVFKSGEPSYFCRECGTDPTCVLCSICFRHSKHRYHKYVMMTSGGGGYCDCGDPEAWKSDPCCELHMP
B6: KA peptide KAKLDEESILKQK (XAKLDEESILKQK, X = K) (peptide)
peptide: KAKLDEESILKQK
notes: Biolayer interferometry single-point screen of UBR-box homologs
B7: FITC-labeled RA peptide RAKLDEESILKQK-FITC (peptide)
peptide: RAKLDEESILKQK-{FITC′}
B8: PS551 (other)
chain: MPSAAPAKPKTKRQSRTQGMPPYNVVLLDDDDHTYGYVIEMLNKVFGHPPEKGFELATEVDKNGRVIVMTTNLEVAELKRDEVHAFGPDPLMPRSKGSMSAVVERAG
B9: RA peptide RAKLDEESILKQK (XAKLDEESILKQK, X = R) (peptide)
peptide: RAKLDEESILKQK
notes: as for B6
B10: Kluyveromyces marxianus UBR1 (PS621) (other)
chain: T4 sequence with N6S, R17K, V47T, S54T, E75T, N77F, G80A, A81E, D83G
notes: UBR-streptavidin complex in fluorescence polarization
B11: PS545 (other)
chain: MSEPMTLPAIPQPRLKERTQRQPPYNVILLNDDDHSYEYVIAMLQVLFGYPREKGYQMAKEVDSTGRVILLTTTREHAELKQEQIHAFGPDPLMARCQGSMTAVIEPAV
B12: Planctomycetia bacterium ClpS homolog (PS557) (other)
chain: MPTAASATESAIEDTPAPARPEVDGRTKPKRQPRYHVVLWNDDDHTYQYVVVMLQSLFGHPPERGYRLAKEVDTQGRVIVLTTTREHAELKRDQIHAFGYDRLLARSKGSMKASIEAEE

The target in test [1] is T17, FA peptide (N-terminal phenylalanine, penultimate alanine; rest of sequence not given).
T17 construct: they may differ; Dye- or FITC-labelled in some assays; also called phenylalanine peptide; N-terminal FA peptide
The test is described as follows: binder-on-chip single-molecule assay. Details: unit not given here.

Test [2] addresses LF peptide (N-terminal LF; rest of sequence not given). The experiment in a line: binder-on-chip single-molecule assay. Details: unit not given here.
Test [3] has as its target T18, YA peptide (N-terminal tyrosine, penultimate alanine; rest of sequence not given).
T18 construct: they may differ; also called tyrosine peptide
The test is described as follows: binder-on-chip single-molecule assay. Also on record: unit not given here.

Test [4] has as its target T19, WA peptide (N-terminal tryptophan, penultimate alanine; rest of sequence not given).
T19 construct: they may differ; also called tryptophan peptide
The experiment in a line: binder-on-chip single-molecule assay. Details: unit not given here.

For test [5], the target named is T1, IA peptide IAKLDEESILKQK …. The experiment in a line: biolayer interferometry, response against 1/kdis. On the technique in general: BLI is a label-free optical method that tracks binding on a fibre tip over time.
In another test the target is T2, MA. The experiment in a line: biolayer interferometry, response against 1/kdis.
Test [6] deals with T3, VA peptide VAKLDEESILKQK …. The test is described as follows: biolayer interferometry, response against 1/kdis.
In test [7] the target is T4, Kluyveromyces lactis UBR-box domain …. The test is described as follows: fluorescence polarization. (In fluorescence polarisation assays a small probe gives low polarisation when free and higher when bound to something large.)
The target in test [8] is T1, IA peptide IAKLDEESILKQK …. The test is described as follows: biolayer interferometry as in Example 12.
Test [9] concerns the target T5, F peptide FAKLDEESILKQK (XAKLDEESILKQK, …). The experiment in a line: biolayer interferometry as in Example 12.
Test [10] concerns the target T6, LA peptide LAKLDEESILKQK …. The test is described as follows: biolayer interferometry as in Example 12.
The target of test [11] is T3, VA peptide VAKLDEESILKQK …. The experiment in a line: biolayer interferometry as in Example 12.
For test [12], the target named is T7, Y peptide YAKLDEESILKQK (XAKLDEESILKQK, …). The test is described as follows: BLI heatmap.
Test [13] deals with T5, F peptide FAKLDEESILKQK (XAKLDEESILKQK, …). The test is described as follows: BLI heatmap.
The target in test [14] is T6, LA peptide LAKLDEESILKQK …. The experiment in a line: BLI heatmap.
For test [15], the target named is T8, FITC-labeled VA peptide …. The test is described as follows: fluorescence polarization, single point.
Test [16] addresses T9, FITC-labeled LA peptide …. The experiment in a line: fluorescence polarization, single point.
For test [17], the target named is T10, FITC-labeled IA peptide …. The experiment in a line: fluorescence polarization, single point.
The target of test [18] is T11, FITC-labeled YA peptide …. The test is described as follows: fluorescence polarization, single point.
The target of test [19] is T12, FITC-labeled FA peptide …. The test is described as follows: fluorescence polarization, single point.
For test [20], the target named is B9. The test is described as follows: BLI heatmap, single-point screen.
The target in test [21] is T13, Mus musculus UBR-box domain (PS535). The experiment in a line: biolayer interferometry single-point screen, 30 C.
The target of test [22] is T4, Kluyveromyces lactis UBR-box domain …. The test is described as follows: biolayer interferometry single-point screen, 30 C.
Test [23] deals with T14, Saccharomyces cerevisiae UBR-box domain …. The experiment in a line: biolayer interferometry single-point screen, 30 C.
The target of test [24] is T4, Kluyveromyces lactis UBR-box domain …. The test is described as follows: fluorescence polarization titration with increasing concentration of UBR protein.
The target of test [25] is T1, IA peptide IAKLDEESILKQK …. The test is described as follows: biolayer interferometry as in Example 12.
In test [26] the target is T5, F peptide FAKLDEESILKQK (XAKLDEESILKQK, …). The experiment in a line: biolayer interferometry as in Example 12.
In test [27] the target is T6, LA peptide LAKLDEESILKQK …. The test is described as follows: biolayer interferometry as in Example 12.
The target of test [28] is T3, VA peptide VAKLDEESILKQK …. The test is described as follows: biolayer interferometry as in Example 12.
Test [29] concerns the target B2. The experiment in a line: fluorescence polarization.
Test [30] addresses B7. The test is described as follows: fluorescence polarization titration with increasing concentration of UBR protein.
Test [31] deals with B6. The experiment in a line: BLI heatmap, single-point screen.
The target of test [32] is T1, IA peptide IAKLDEESILKQK …. The test is described as follows: biolayer interferometry as in Example 12.
For test [33], the target named is T5, F peptide FAKLDEESILKQK (XAKLDEESILKQK, …). The experiment in a line: biolayer interferometry as in Example 12.
Test [34] addresses T6, LA peptide LAKLDEESILKQK …. The experiment in a line: biolayer interferometry as in Example 12.
The target of test [35] is T3, VA peptide VAKLDEESILKQK …. The test is described as follows: biolayer interferometry as in Example 12.
The target in test [36] is T1, IA peptide IAKLDEESILKQK …. The experiment in a line: biolayer interferometry as in Example 12.
Test [37] concerns the target T5, F peptide FAKLDEESILKQK (XAKLDEESILKQK, …). The test is described as follows: biolayer interferometry as in Example 12.
Test [38] deals with T6, LA peptide LAKLDEESILKQK …. The experiment in a line: biolayer interferometry as in Example 12.
Test [39] deals with T3, VA peptide VAKLDEESILKQK …. The experiment in a line: biolayer interferometry as in Example 12.
For another test, the target named is T15, IF. The test is described as follows: 3-binder dynamic sequencing of [..]; binder assigned by the binding preference in Table 1.
The target in another test is T16, LI. The test is described as above.

Substitutions are numbered along the chain they refer to. Primed or numbered codes have the meaning given here. Ends that are not written are not given here. FITC′ = not defined here

As usually defined, the Kd is the concentration at which binding is half-saturated.

With B1, the Mean pulse width in test [1] was 0.66; in [2], 0.3; in test [3] it was 0.77; in test [4], 0.39. Also, the “Median PW” value is 0.36 in [1], 0.18 in test [2], 0.4 in [3] and 0.24 in test [4]. Moreover, the binding result (in [5]; with MA; in test [6]) was “no binding” each time.
Take B2: binding in test [7] was characterised by a dissociation constant (Kd) of 403 nM.
Consider B3, for which the binding result in [8] was “binds”; in [9], “no binding”; in test [10], “binds”; in [11] it was “binds”.
With B4, the binding result is “binds” in test [12]; “binds” in test [13]; “binds” in test [14]; “no binding” in test [15]; “binds” in test [16]; “no binding” in [17]. Besides, the binding result in test [18] and in test [19] was “binds” each time.
In the case of B5, the binding result in [20] is reported as “binds”.
For the molecule B6, the binding result in [21], in [22] and in test [23] was “binds” throughout.
Regarding B7, the affinity in test [24], expressed as Kd, was 460 nM.
With B8, the binding result in [25] is on record as “binds”; in test [26], “no binding”; in [27] it was “binds”; in [28], “binds”.
On to B9, for which the binding result in [21], in [22] and in [23] was “binds” each time.
For the molecule B10, the values for the Kd in test [29] and in test [30] were 321 nM and 420 nM, respectively. The binding result in test [31] is recorded as “binds”.
On to B11, for which the binding result in test [32] is “binds”; in test [33] it was “no binding”; in test [34] it was “binds”; in [35] it was “binds”.
As for B12, the binding result is given as “binds” in test [36]; “no binding” in test [37]; “binds” in test [38]; “binds” in [39]; “binds” with IF; “binds” with LI.

For the origin of these results see US20210364527A1 (QUANTUM SI, published 2021).
